# What was measured:
# Test in all cases: cell-based or functional assay
# [1] = biological target: HIV-1 Env of pseudovirus 928-28 (HIV-1)
# [2] = biological target: HIV-1 Env of pseudovirus ZM53M.PB12 (HIV-1)
# [3] = biological target: HIV-1 Env of pseudovirus 7030102001E5(Rev-) (HIV-1)
# [4] = biological target: HIV-1 Env of pseudovirus 191955_A11 (HIV-1)
# [5] = biological target: HIV-1 Env of pseudovirus MS208.A1 (HIV-1)
# [6] = biological target: HIV-1 Env of pseudovirus 3016.v5.c45 (HIV-1)
# [7] = biological target: HIV-1 Env of pseudovirus CAAN5342.A2 (HIV-1)
# [8] = biological target: HIV-1 Env of pseudovirus 235-47 (HIV-1)
# [9] = biological target: HIV-1 Env of pseudovirus 6952.v1.c20 (HIV-1)
# [10] = biological target: HIV-1 Env of pseudovirus Ce0682_E4 (HIV-1)
# [11] = biological target: HIV-1 Env of pseudovirus X1254_c3 (HIV-1)
# [12] = biological target: HIV-1 Env of pseudovirus CNE21 (HIV-1)
# [13] = biological target: HIV-1 Env of pseudovirus T257-31 (HIV-1)
# [14] = biological target: HIV-1 Env of pseudovirus Ce1176_A3 (HIV-1)
# [15] = biological target: HIV-1 Env of pseudovirus T250-4 (HIV-1)
# [16] = biological target: HIV-1 Env of pseudovirus HIV-16055-2.3 (HIV-1)
# [17] = biological target: HIV-1 Env of pseudovirus Ce2060_G9 (HIV-1)
# [18] = biological target: HIV-1 Env of pseudovirus 0815.v3.c3 (HIV-1)
# [19] = biological target: HIV-1 Env of pseudovirus 9004SS_A3_4 (HIV-1)
# [20] = biological target: HIV-1 Env of pseudovirus ZM197M.PB7 (HIV-1)
# [21] = biological target: HIV-1 Env of pseudovirus P1981_C5_3 (HIV-1)
# [22] = biological target: HIV-1 Env of pseudovirus ZM109F.PB4 (HIV-1)
# [23] = biological target: HIV-1 Env of pseudovirus 263-8 (HIV-1)
# [24] = biological target: HIV-1 Env of pseudovirus BJOX028000.10.3 (HIV-1)
# [25] = biological target: HIV-1 Env of pseudovirus HIV-001428-2.42 (HIV-1)
# [26] = biological target: HIV-1 Env of pseudovirus RHPA4259.7 (HIV-1)
# [27] = biological target: HIV-1 Env of pseudovirus 231966.c02 (HIV-1)
# [28] = biological target: HIV-1 Env of pseudovirus 3103.v3.c10 (HIV-1)
# [29] = biological target: HIV-1 Env of pseudovirus TRJO4551.58 (HIV-1)
# [30] = biological target: HIV-1 Env of pseudovirus 211-9 (HIV-1)
# [31] = biological target: HIV-1 Env of pseudovirus X1632_S2_B10 (HIV-1)
# [32] = biological target: HIV-1 Env of pseudovirus Ce2010_F5 (HIV-1)
# [33] = biological target: HIV-1 Env of pseudovirus C1080.c03 (HIV-1)
# [34] = biological target: HIV-1 Env of pseudovirus BJOX009000.02.4 (HIV-1)
# [35] = biological target: HIV-1 Env of pseudovirus 1012_11_TC21_3257 (HIV-1)
# [36] = biological target: HIV-1 Env of pseudovirus 6240_08_TA5_4622 (HIV-1)
substance,measurement,setting,value
PGT145 (antibody),IC50,[1],> 50 µg/mL
same,IC80,[1],> 50 µg/mL
same,IC50,[2],0.367 µg/mL
same,IC80,[2],11.8 µg/mL
same,IC50,[3],> 50 µg/mL
same,IC80,[3],> 50 µg/mL
same,IC50,[4],< 0.001 µg/mL
same,IC80,[4],< 0.001 µg/mL
same,IC50,[5],0.334 µg/mL
same,IC80,[5],18 µg/mL
same,"IC50, titer in TZM.bl cells",[6],> 50 µg/mL
same,"IC80, titer in TZM.bl cells",[6],> 50 µg/mL
same,IC50,[7],6.67 µg/mL
same,IC80,[7],25.5 µg/mL
same,"IC50, titer in TZM.bl cells",[8],3.21 µg/mL
same,"IC80, titer in TZM.bl cells",[8],36 µg/mL
same,"IC50, titer in TZM.bl cells",[9],3.12 µg/mL
same,"IC80, titer in TZM.bl cells",[9],> 50 µg/mL
same,IC50,[10],33.6 µg/mL
same,IC80,[10],> 50 µg/mL
same,"IC50, titer in TZM.bl cells",[11],5.6 µg/mL
same,"IC80, titer in TZM.bl cells",[11],> 50 µg/mL
same,IC50,[12],< 0.001 µg/mL
same,IC80,[12],0.009 µg/mL
same,IC50,[13],5.18 µg/mL
same,IC80,[13],> 50 µg/mL
same,IC50,[14],> 50 µg/mL
same,IC80,[14],> 50 µg/mL
same,IC50,[15],0.002 µg/mL
same,IC80,[15],0.039 µg/mL
same,IC50,[16],0.003 µg/mL
same,IC80,[16],0.051 µg/mL
same,IC50,[17],0.016 µg/mL
same,IC80,[17],0.205 µg/mL
same,"IC50, titer in TZM.bl cells",[18],> 50 µg/mL
same,"IC80, titer in TZM.bl cells",[18],> 50 µg/mL
same,IC50,[19],0.018 µg/mL
same,IC80,[19],0.419 µg/mL
same,IC50,[20],0.628 µg/mL
same,IC80,[20],5.24 µg/mL
same,"IC50, titer in TZM.bl cells",[21],5.41 µg/mL
same,"IC80, titer in TZM.bl cells",[21],> 50 µg/mL
same,IC50,[22],0.042 µg/mL
same,IC80,[22],0.234 µg/mL
same,IC50,[23],32.1 µg/mL
same,IC80,[23],> 50 µg/mL
same,"IC50, titer in TZM.bl cells",[24],> 50 µg/mL
same,"IC80, titer in TZM.bl cells",[24],> 50 µg/mL
same,IC50,[25],0.001 µg/mL
same,IC80,[25],0.083 µg/mL
same,IC50,[26],0.029 µg/mL
same,IC80,[26],0.095 µg/mL
same,"IC50, titer in TZM.bl cells",[27],< 0.001 µg/mL
same,"IC80, titer in TZM.bl cells",[27],0.01 µg/mL
same,"IC50, titer in TZM.bl cells",[28],0.043 µg/mL
same,"IC80, titer in TZM.bl cells",[28],0.164 µg/mL
same,IC50,[29],> 50 µg/mL
same,IC80,[29],> 50 µg/mL
same,"IC50, titer in TZM.bl cells",[30],0.129 µg/mL
same,"IC80, titer in TZM.bl cells",[30],0.923 µg/mL
same,"IC50, titer in TZM.bl cells",[31],0.012 µg/mL
same,"IC80, titer in TZM.bl cells",[31],2.03 µg/mL
same,IC50,[32],> 50 µg/mL
same,IC80,[32],> 50 µg/mL
same,"IC50, titer in TZM.bl cells",[33],0.024 µg/mL
same,"IC80, titer in TZM.bl cells",[33],0.146 µg/mL
same,"IC50, titer in TZM.bl cells",[34],0.117 µg/mL
same,"IC80, titer in TZM.bl cells",[34],0.745 µg/mL
same,IC50,[35],0.009 µg/mL
same,IC80,[35],0.025 µg/mL
same,IC50,[36],> 50 µg/mL
same,IC80,[36],> 50 µg/mL
